± gives the standard error. For some of these results: Variants at the floor of the assay were thinned out.
B1: glmS ribozyme (parent)
chain: AUAAAAGCGCCAGAACUACAGAAAUGUAGUUGACGAGGAGGAGGUUUAUCGAAUUUUCGGCGGAUGCCUCCAAA

How the values were obtained:
Conditions in all cases: with glucosamine-6-phosphate
[1] = variants of: B1; assay: kcat; higher = faster cleavage; RNA array
Method in brief: (§1)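 kobs was derived by fitting per-tile medians to one- or two-exponential decays after normalising signals to baseline and to non-cleaving reference variants. Those signals came from barcoded ribozyme variants transcribed in situ by E. coli RNA polymerase on sequenced MiSeq chips, followed through a hybridised Cy3 probe at 37 °C and imaged over ~14 h. Glucosamine-6-phosphate (40 μM to 10 mM) in HEPES/KCl/Mg(OAc)2 buffer was flowed in. Weighted Michaelis–Menten fits across concentrations then gave kcat and KM.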

[2] = variants of: B1; assay: KM; higher = weaker cofactor use; RNA array
Method in brief: as §1

[3] = variants of: B1; assay: self-cleavage kobs at 640 uM GlcN6P; higher = faster cleavage; RNA array
Method in brief: as §1

[4] = variants of: B1; assay: self-cleavage kobs at 2500 uM GlcN6P; higher = faster cleavage; RNA array
Method in brief: as §1

[5] = variants of: B1; assay: self-cleavage kobs at 10000 uM GlcN6P; higher = faster cleavage; RNA array
Method in brief: as §1

[6] = variants of: B1; assay: self-cleavage kobs at 160 uM GlcN6P; higher = faster cleavage; RNA array
Method in brief: as §1

[7] = variants of: B1; assay: self-cleavage kobs at 40 uM GlcN6P; higher = faster cleavage; RNA array
Method in brief: as §1

Variant: G13U U47C
- kcat [1]: 7.04e-05 ± 3.2e-06 s⁻¹
- KM [2]: 1030 ± 150 µM
- self-cleavage kobs at 640 uM GlcN6P [3]: 2.85e-05 ± 1.2e-05 s⁻¹
- self-cleavage kobs at 2500 uM GlcN6P [4]: 4.74e-05 ± 1.2e-05 s⁻¹
- self-cleavage kobs at 10000 uM GlcN6P [5]: 6.59e-05 ± 1.6e-05 s⁻¹

Variant: U45C U57C
- kcat [1]: 1.67e-05 ± 1e-06 s⁻¹
- KM [2]: 6920 ± 1000 µM

Variant: U30C C68U
- kcat [1]: 0.000128 ± 8.6e-06 s⁻¹
- KM [2]: 1210 ± 270 µM
- self-cleavage kobs at 640 uM GlcN6P [3]: 4.07e-05 ± 6.8e-06 s⁻¹
- self-cleavage kobs at 2500 uM GlcN6P [4]: 9.82e-05 ± 1.1e-05 s⁻¹
- self-cleavage kobs at 10000 uM GlcN6P [5]: 0.000111 ± 8.5e-06 s⁻¹

Variant: U30C C70U
- kcat [1]: 0.000529 ± 0.00014 s⁻¹
- KM [2]: 1890 ± 790 µM
- self-cleavage kobs at 160 uM GlcN6P [6]: 6.03e-05 ± 7.8e-06 s⁻¹
- self-cleavage kobs at 640 uM GlcN6P [3]: 0.000125 ± 1e-05 s⁻¹
- self-cleavage kobs at 2500 uM GlcN6P [4]: 0.000261 ± 2.9e-05 s⁻¹
- self-cleavage kobs at 10000 uM GlcN6P [5]: 0.000536 ± 5.9e-05 s⁻¹

Variant: U30C U56G
- kcat [1]: 0.000308 ± 7.9e-05 s⁻¹
- self-cleavage kobs at 640 uM GlcN6P [3]: 8.86e-05 ± 1.3e-05 s⁻¹
- self-cleavage kobs at 2500 uM GlcN6P [4]: 0.000135 ± 1.8e-05 s⁻¹
- self-cleavage kobs at 10000 uM GlcN6P [5]: 0.000296 ± 3.5e-05 s⁻¹

Variant: A12G U56A
- kcat [1]: 0.00105 ± 0.00021 s⁻¹
- KM [2]: 7960 ± 2300 µM
- self-cleavage kobs at 160 uM GlcN6P [6]: 4.26e-05 ± 1.7e-05 s⁻¹
- self-cleavage kobs at 640 uM GlcN6P [3]: 7.85e-05 ± 1.1e-05 s⁻¹
- self-cleavage kobs at 2500 uM GlcN6P [4]: 0.000221 ± 4.8e-05 s⁻¹
- self-cleavage kobs at 10000 uM GlcN6P [5]: 0.000592 ± 6.2e-05 s⁻¹

Variant: A6C U47C
- kcat [1]: 1.02e-05 ± 2.4e-07 s⁻¹
- KM [2]: 526 ± 77 µM
- self-cleavage kobs at 160 uM GlcN6P [6]: < 1e-05 s⁻¹

Variant: U31A U54A
- kcat [1]: 0.011 ± 0.003 s⁻¹
- KM [2]: 1640 ± 590 µM
- self-cleavage kobs at 40 uM GlcN6P [7]: 0.000241 ± 4.8e-05 s⁻¹
- self-cleavage kobs at 160 uM GlcN6P [6]: 0.00112 ± 0.00023 s⁻¹
- self-cleavage kobs at 640 uM GlcN6P [3]: 0.00342 ± 0.00062 s⁻¹
- self-cleavage kobs at 2500 uM GlcN6P [4]: 0.00508 ± 0.0013 s⁻¹
- self-cleavage kobs at 10000 uM GlcN6P [5]: 0.0126 ± 0.0031 s⁻¹

Variant: U55A C70A
- kcat [1]: 0.00013 ± 1.3e-05 s⁻¹
- KM [2]: 116 ± 52 µM
- self-cleavage kobs at 40 uM GlcN6P [7]: 2.79e-05 ± 1.1e-05 s⁻¹
- self-cleavage kobs at 160 uM GlcN6P [6]: 8.57e-05 ± 2e-05 s⁻¹
- self-cleavage kobs at 640 uM GlcN6P [3]: 0.00011 ± 2.1e-05 s⁻¹
- self-cleavage kobs at 2500 uM GlcN6P [4]: 0.000155 ± 2.2e-05 s⁻¹
- self-cleavage kobs at 10000 uM GlcN6P [5]: 0.000114 ± 1.4e-05 s⁻¹

Variant: U2A G29U
- kcat [1]: 0.00852 ± 0.0033 s⁻¹
- self-cleavage kobs at 40 uM GlcN6P [7]: 0.000181 ± 3.8e-05 s⁻¹
- self-cleavage kobs at 160 uM GlcN6P [6]: 0.000569 ± 0.00018 s⁻¹
- self-cleavage kobs at 640 uM GlcN6P [3]: 0.00137 ± 0.00032 s⁻¹
- self-cleavage kobs at 10000 uM GlcN6P [5]: 0.00749 ± 0.0017 s⁻¹

Variant: U31C C67U
- kcat [1]: 0.00122 ± 0.00016 s⁻¹
- KM [2]: 1290 ± 260 µM
- self-cleavage kobs at 40 uM GlcN6P [7]: 4.68e-05 ± 7.4e-06 s⁻¹
- self-cleavage kobs at 160 uM GlcN6P [6]: 0.000125 ± 2e-05 s⁻¹
- self-cleavage kobs at 640 uM GlcN6P [3]: 0.000375 ± 4.8e-05 s⁻¹
- self-cleavage kobs at 2500 uM GlcN6P [4]: 0.000785 ± 0.00011 s⁻¹
- self-cleavage kobs at 10000 uM GlcN6P [5]: 0.00115 ± 0.00016 s⁻¹

Variant: A6U G40U
- kcat [1]: 2.6e-05 ± 7e-07 s⁻¹
- KM [2]: 4450 ± 330 µM
- self-cleavage kobs at 10000 uM GlcN6P [5]: 1.8e-05 ± 7.6e-06 s⁻¹

Variant: G13A A15G
- kcat [1]: 0.000875 ± 0.00018 s⁻¹
- KM [2]: 1840 ± 670 µM
- self-cleavage kobs at 160 uM GlcN6P [6]: 6.23e-05 ± 1.3e-05 s⁻¹
- self-cleavage kobs at 640 uM GlcN6P [3]: 0.000327 ± 5.6e-05 s⁻¹
- self-cleavage kobs at 2500 uM GlcN6P [4]: 0.000431 ± 7.3e-05 s⁻¹
- self-cleavage kobs at 10000 uM GlcN6P [5]: 0.000784 ± 0.00011 s⁻¹

Variant: G7A A14C
- kcat [1]: 1.34e-05 ± 5.9e-06 s⁻¹
- self-cleavage kobs at 40 uM GlcN6P [7]: < 1e-05 s⁻¹

Variant: A42U U56A
- kcat [1]: 0.000109 ± 7.4e-06 s⁻¹
- KM [2]: 3230 ± 710 µM
- self-cleavage kobs at 2500 uM GlcN6P [4]: 4.97e-05 ± 1.4e-05 s⁻¹
- self-cleavage kobs at 10000 uM GlcN6P [5]: 8.21e-05 ± 9.2e-06 s⁻¹

Variant: G13C A15U
- kcat [1]: 0.000131 ± 1.4e-05 s⁻¹
- KM [2]: 2810 ± 940 µM
- self-cleavage kobs at 640 uM GlcN6P [3]: 3.78e-05 ± 1e-05 s⁻¹
- self-cleavage kobs at 2500 uM GlcN6P [4]: 5.63e-05 ± 7.5e-06 s⁻¹
- self-cleavage kobs at 10000 uM GlcN6P [5]: 0.000103 ± 6.3e-06 s⁻¹

Variant: A12U G51A
- kcat [1]: 1.05e-05 ± 2.6e-06 s⁻¹

Variant: A12G A33U
- kcat [1]: 1.86e-05 ± 6.4e-06 s⁻¹
- self-cleavage kobs at 40 uM GlcN6P [7]: < 1e-05 s⁻¹
- self-cleavage kobs at 10000 uM GlcN6P [5]: < 1e-05 s⁻¹

Variant: A14G C68G
- kcat [1]: 0.000237 ± 2.5e-05 s⁻¹
- KM [2]: 590 ± 180 µM
- self-cleavage kobs at 40 uM GlcN6P [7]: 3.33e-05 ± 1.1e-05 s⁻¹
- self-cleavage kobs at 160 uM GlcN6P [6]: 4.57e-05 ± 1.1e-05 s⁻¹
- self-cleavage kobs at 640 uM GlcN6P [3]: 0.000123 ± 1.6e-05 s⁻¹
- self-cleavage kobs at 2500 uM GlcN6P [4]: 0.000181 ± 2.1e-05 s⁻¹
- self-cleavage kobs at 10000 uM GlcN6P [5]: 0.000235 ± 2.4e-05 s⁻¹

Variant: A12G A33G U57A G59U
- kcat [1]: < 1e-05 s⁻¹
- self-cleavage kobs at 640 uM GlcN6P [3]: < 1e-05 s⁻¹
- self-cleavage kobs at 2500 uM GlcN6P [4]: < 1e-05 s⁻¹

Variant: A48G U54C
- kcat [1]: 0.000123 ± 1.5e-05 s⁻¹
- KM [2]: 1310 ± 500 µM
- self-cleavage kobs at 640 uM GlcN6P [3]: 3.59e-05 ± 1.1e-05 s⁻¹
- self-cleavage kobs at 2500 uM GlcN6P [4]: 0.000101 ± 1.8e-05 s⁻¹
- self-cleavage kobs at 10000 uM GlcN6P [5]: 0.000104 ± 1.3e-05 s⁻¹

Variant: A14G A33C
- kcat [1]: 0.000125 ± 5.4e-06 s⁻¹
- KM [2]: 1470 ± 220 µM
- self-cleavage kobs at 640 uM GlcN6P [3]: 3.41e-05 ± 1.4e-05 s⁻¹
- self-cleavage kobs at 2500 uM GlcN6P [4]: 8.25e-05 ± 1.2e-05 s⁻¹
- self-cleavage kobs at 10000 uM GlcN6P [5]: 0.000108 ± 1.2e-05 s⁻¹

Variant: U56A G66A
- kcat [1]: 0.00503 ± 0.0023 s⁻¹
- self-cleavage kobs at 40 uM GlcN6P [7]: 0.000167 ± 1.7e-05 s⁻¹
- self-cleavage kobs at 160 uM GlcN6P [6]: 0.00039 ± 6.4e-05 s⁻¹
- self-cleavage kobs at 640 uM GlcN6P [3]: 0.00117 ± 0.00021 s⁻¹
- self-cleavage kobs at 2500 uM GlcN6P [4]: 0.00253 ± 0.00043 s⁻¹
- self-cleavage kobs at 10000 uM GlcN6P [5]: 0.00718 ± 0.0011 s⁻¹

Variant: G35A G38U
- kcat [1]: < 1e-05 s⁻¹
- self-cleavage kobs at 160 uM GlcN6P [6]: < 1e-05 s⁻¹

Variant: G35A G38C
- kcat [1]: < 1e-05 s⁻¹
- self-cleavage kobs at 640 uM GlcN6P [3]: < 1e-05 s⁻¹

Variant: A12C U56G
- kcat [1]: 0.0146 ± 0.003 s⁻¹
- KM [2]: 3360 ± 910 µM
- self-cleavage kobs at 40 uM GlcN6P [7]: 0.000162 ± 2.5e-05 s⁻¹
- self-cleavage kobs at 160 uM GlcN6P [6]: 0.000652 ± 0.00018 s⁻¹
- self-cleavage kobs at 640 uM GlcN6P [3]: 0.00336 ± 0.00068 s⁻¹
- self-cleavage kobs at 2500 uM GlcN6P [4]: 0.0054 ± 0.0014 s⁻¹
- self-cleavage kobs at 10000 uM GlcN6P [5]: 0.0111 ± 0.0018 s⁻¹

Variant: A6U U46C
- kcat [1]: 2.4e-05 ± 7.8e-07 s⁻¹
- KM [2]: 2710 ± 290 µM
- self-cleavage kobs at 160 uM GlcN6P [6]: < 1e-05 s⁻¹

Variant: U54G C58G
- kcat [1]: 0.000237 ± 2.6e-05 s⁻¹
- KM [2]: 4280 ± 1000 µM
- self-cleavage kobs at 2500 uM GlcN6P [4]: 9.35e-05 ± 1.7e-05 s⁻¹
- self-cleavage kobs at 10000 uM GlcN6P [5]: 0.000164 ± 2e-05 s⁻¹

Variant: A12U U65G
- kcat [1]: 0.00705 ± 0.00071 s⁻¹
- KM [2]: 4650 ± 730 µM
- self-cleavage kobs at 40 uM GlcN6P [7]: 5.57e-05 ± 9.8e-06 s⁻¹
- self-cleavage kobs at 160 uM GlcN6P [6]: 0.000303 ± 6.4e-05 s⁻¹
- self-cleavage kobs at 640 uM GlcN6P [3]: 0.000829 ± 0.00018 s⁻¹
- self-cleavage kobs at 2500 uM GlcN6P [4]: 0.00239 ± 0.00046 s⁻¹
- self-cleavage kobs at 10000 uM GlcN6P [5]: 0.00483 ± 0.00044 s⁻¹

Variant: G62U C67G C68U
- kcat [1]: 1.17e-05 ± 4.6e-06 s⁻¹

Variant: C10U C70U
- kcat [1]: 2.53e-05 ± 1.3e-06 s⁻¹
- KM [2]: 777 ± 240 µM
- self-cleavage kobs at 2500 uM GlcN6P [4]: 1.83e-05 ± 8e-06 s⁻¹
- self-cleavage kobs at 10000 uM GlcN6P [5]: 2.38e-05 ± 7e-06 s⁻¹

Variant: A42U U45A
- kcat [1]: 0.000149 ± 2.4e-05 s⁻¹
- KM [2]: 1500 ± 680 µM
- self-cleavage kobs at 640 uM GlcN6P [3]: 3.93e-05 ± 1e-05 s⁻¹
- self-cleavage kobs at 2500 uM GlcN6P [4]: 0.000134 ± 2.6e-05 s⁻¹
- self-cleavage kobs at 10000 uM GlcN6P [5]: 0.000123 ± 1.6e-05 s⁻¹
